Conditions in all cases: 20 nM; 72 h
Data set [1] deals with MCF10A. Put plainly: one-nucleolus phenotype percent effect (relative to siNT 0% and siNOL11 100%); higher = more cells with one nucleolus (ribosome biogenesis inhibition). The method, then: (§1)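 After 72 h, cells were fixed and stained with Hoechst and anti-fibrillarin, and nucleoli per nucleus were counted with CellProfiler. Values are plate-adjusted percent effect for the one-nucleolus and 5+ nucleoli phenotypes, normalised to siNT (0%) and to the positive controls siNOL11 or siKIF11 (100%), as the mean of biological triplicates. Percent viability is the nuclei count relative to siNT.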

The subject of data set [2] is MCF10A. Put plainly: percent viability (nuclei count relative to siNT); higher = more viable cells. As for the experimental part:
as §1

Data set [3] has as its system MCF10A. Put plainly: 5+ nucleoli phenotype percent effect (relative to siNT 0% and siKIF11 100%); higher = more cells with five or more nucleoli. The method, then: as §1

As to AAUUGCACUUUAGCAAUGGUGA [hsa-miR-367-3p], the “one-nucleolus phenotype percent effect” value with MCF10A [1] was -12.8%. The percent viability in the data set on MCF10A [2] was 111%. Besides, the “5+ nucleoli phenotype percent effect” value in the data set with MCF10A [3] came to 18%.

On to “AAUUUACUCUGCAAUCUUCUCC [hsa-miR-4699-3p]”, for which the “one-nucleolus phenotype percent effect” value in the data set on MCF10A [1] is -12.5%. Also, in the data set with MCF10A [2], the percent viability came to 87.9%. Also, the “5+ nucleoli phenotype percent effect” value in the data set with MCF10A [3] is -0.943%.

Regarding “AAUUUGGUUUCUGAGGCACUUAGU [hsa-miR-5002-5p]”, in the data set on MCF10A [1], the “one-nucleolus phenotype percent effect” value was determined as 27.3%. Besides, the percent viability with MCF10A [2] was determined as 32.2%. The “5+ nucleoli phenotype percent effect” value in the data set with MCF10A [3] stood at 1.85%.

In the case of “ACAAAAAAAAAAGCCCAACCCUUC [hsa-miR-3613-3p]”, the “one-nucleolus phenotype percent effect” value in the data set with MCF10A [1] is -10.2%. In the data set on MCF10A [2], the percent viability was 91.6%. Also, in the data set on MCF10A [3], the “5+ nucleoli phenotype percent effect” value is 16.2%.

On to ACAAAGUACAGCAUUAGCCUUAG [hsa-miR-3973], for which the “one-nucleolus phenotype percent effect” value in the data set on MCF10A [1] is -6.17%. Further, in the data set with MCF10A [2], the percent viability stood at 29.3%. The “5+ nucleoli phenotype percent effect” value in the data set with MCF10A [3] was 0.19%.

In the case of ACAAAGUGCUUCCCUUUAGAGU [hsa-miR-520h], the “one-nucleolus phenotype percent effect” value in the data set on MCF10A [1] was -15%. In addition, the percent viability in the data set with MCF10A [2] was 173%. Also, the “5+ nucleoli phenotype percent effect” value in the data set with MCF10A [3] turned out to be 11.9%.

Turning to ACAAAGUGCUUCCCUUUAGAGUGU [hsa-miR-520g], the “one-nucleolus phenotype percent effect” value in the data set with MCF10A [1] is -7.99%. Moreover, the percent viability with MCF10A [2] amounted to 77.4%. The “5+ nucleoli phenotype percent effect” value in the data set with MCF10A [3] worked out at 24.4%.

Take “ACAACAGUGACUUGCUCUCCAA [hsa-miR-4709-5p]”: the “one-nucleolus phenotype percent effect” value in the data set on MCF10A [1] was determined as 3.79%. The percent viability in the data set with MCF10A [2] is 73.8%. Further, in the data set with MCF10A [3], the “5+ nucleoli phenotype percent effect” value is -18.3%.

On to ACAAGGUGUGCAUGCCUGACC [hsa-miR-4761-5p], for which the “one-nucleolus phenotype percent effect” value in the data set on MCF10A [1] was found to be 53.7%. In the data set on MCF10A [2], the percent viability is 18.1%. Besides, in the data set on MCF10A [3], the “5+ nucleoli phenotype percent effect” value is -24.8%.

Take “ACACACUUACCCGUAGAGAUUCUA [hsa-miR-216b-3p]”: the “one-nucleolus phenotype percent effect” value in the data set on MCF10A [1] was -17.3%. The percent viability in the data set on MCF10A [2] amounted to 59%. For the same sequence, the “5+ nucleoli phenotype percent effect” value in the data set on MCF10A [3] was 35.7%.

For “ACACAGUGCUUCAUCCACUACU [hsa-miR-3681-3p]”, the “one-nucleolus phenotype percent effect” value in the data set with MCF10A [1] was -4.5%. The percent viability in the data set on MCF10A [2] was determined as 76.6%. The “5+ nucleoli phenotype percent effect” value in the data set on MCF10A [3] is -3.88%.

As for ACACAUGGGUGGCUGUGGCCU [hsa-miR-4717-3p], the “one-nucleolus phenotype percent effect” value with MCF10A [1] was -12.1%. Moreover, the percent viability in the data set on MCF10A [2] came out at 66.4%. For the same sequence, the “5+ nucleoli phenotype percent effect” value with MCF10A [3] is 24.6%.

In the case of ACACCCUCUUUCCCUACCGCC [hsa-miR-6865-3p], the “one-nucleolus phenotype percent effect” value in the data set with MCF10A [1] was -26%. The percent viability in the data set on MCF10A [2] was determined as 86.3%. For the same sequence, the “5+ nucleoli phenotype percent effect” value in the data set on MCF10A [3] worked out at 40.5%.

In the case of ACACUGUCCCCUUCUCCCCAG [hsa-miR-6760-3p], the “one-nucleolus phenotype percent effect” value in the data set with MCF10A [1] is -27.2%. Also, the percent viability in the data set on MCF10A [2] was determined as 92.8%. In addition, in the data set with MCF10A [3], the “5+ nucleoli phenotype percent effect” value amounted to 56.3%.

In the case of ACACUUGUUGGGAUGACCUGC [hsa-miR-6500-3p], the “one-nucleolus phenotype percent effect” value in the data set with MCF10A [1] is 22.5%. The percent viability with MCF10A [2] came to 23.8%. Also, the “5+ nucleoli phenotype percent effect” value with MCF10A [3] was -37.8%.

Take ACAGACUUGCUGUGAUGUUCA [hsa-miR-499b-5p]: the “one-nucleolus phenotype percent effect” value in the data set on MCF10A [1] worked out at 2.65%. Also, in the data set with MCF10A [2], the percent viability came to 35.2%. Moreover, in the data set on MCF10A [3], the “5+ nucleoli phenotype percent effect” value was -7.28%.

For the sequence “ACAGAGGACAGUGGAGUGUGAGC [hsa-miR-6847-5p]”, the “one-nucleolus phenotype percent effect” value in the data set with MCF10A [1] was -1.08%. Also, the percent viability with MCF10A [2] stood at 51.1%. In addition, the “5+ nucleoli phenotype percent effect” value with MCF10A [3] is -1.34%.

As to ACAGAUUCGAUUCUAGGGGAAU [hsa-miR-10b-3p], the “one-nucleolus phenotype percent effect” value in the data set with MCF10A [1] is 15.6%. In the data set on MCF10A [2], the percent viability is 53.5%. In addition, the “5+ nucleoli phenotype percent effect” value in the data set with MCF10A [3] is -9.13%.

Consider ACAGCACUGCCUGGUCAGA [hsa-miR-383-3p], for which the “one-nucleolus phenotype percent effect” value in the data set with MCF10A [1] is -8.43%. Besides, the percent viability with MCF10A [2] worked out at 54.9%. Besides, the “5+ nucleoli phenotype percent effect” value in the data set on MCF10A [3] is -19%.

Consider ACAGCAGGCACAGACAGGCAGU [hsa-miR-214-3p], for which the “one-nucleolus phenotype percent effect” value with MCF10A [1] worked out at 13.3%. Also, in the data set on MCF10A [2], the percent viability is 19.3%. The “5+ nucleoli phenotype percent effect” value in the data set with MCF10A [3] was -1.88%.

As to ACAGCCCAGCAGUUAUCACGGG [hsa-miR-5685], the “one-nucleolus phenotype percent effect” value with MCF10A [1] is -1.32%. Moreover, the percent viability in the data set on MCF10A [2] came out at 57.8%. Moreover, the “5+ nucleoli phenotype percent effect” value with MCF10A [3] was -0.657%.

Regarding ACAGGAGUGGGGGUGGGACAU [hsa-miR-4433-3p], in the data set on MCF10A [1], the “one-nucleolus phenotype percent effect” value is 6.34%. Moreover, the percent viability in the data set on MCF10A [2] is 38.2%. In addition, the “5+ nucleoli phenotype percent effect” value with MCF10A [3] was -0.614%.

Regarding “ACAGGCACGACUGGUUUGGCA [hsa-miR-6715b-5p]”, the “one-nucleolus phenotype percent effect” value in the data set on MCF10A [1] was 54.7%. Also, the percent viability with MCF10A [2] worked out at 14.8%. Further, in the data set with MCF10A [3], the “5+ nucleoli phenotype percent effect” value was -27.8%.

As to ACAGGCAGGAUUGGGGAA [hsa-miR-4514], the “one-nucleolus phenotype percent effect” value with MCF10A [1] is 32.3%. Besides, the percent viability in the data set with MCF10A [2] was determined as 18.4%. Moreover, the “5+ nucleoli phenotype percent effect” value in the data set on MCF10A [3] is -12%.

For the origin of these results see the supplement of paper PMC10899765.
